The results in this text go back to patent publication US20020155533A1 (Takeda / Millennium, published 2002).

For assay [1], the target named is bovine PACAP receptor protein from bovine cerebrum (bovine) (UniProt Q29627). As to the kind of experiment: radioligand.
Assay [2] concerns the target T1, rat PACAP receptor protein Type I-B (pRPR4-B, derived from pRPACAPR12), expressed in CHO or Sf9 cells (rat, UniProt P32215 20-523).
T1 construct: also called pRPR4-B-introduced CHO cells; clone B17
T1 sequence: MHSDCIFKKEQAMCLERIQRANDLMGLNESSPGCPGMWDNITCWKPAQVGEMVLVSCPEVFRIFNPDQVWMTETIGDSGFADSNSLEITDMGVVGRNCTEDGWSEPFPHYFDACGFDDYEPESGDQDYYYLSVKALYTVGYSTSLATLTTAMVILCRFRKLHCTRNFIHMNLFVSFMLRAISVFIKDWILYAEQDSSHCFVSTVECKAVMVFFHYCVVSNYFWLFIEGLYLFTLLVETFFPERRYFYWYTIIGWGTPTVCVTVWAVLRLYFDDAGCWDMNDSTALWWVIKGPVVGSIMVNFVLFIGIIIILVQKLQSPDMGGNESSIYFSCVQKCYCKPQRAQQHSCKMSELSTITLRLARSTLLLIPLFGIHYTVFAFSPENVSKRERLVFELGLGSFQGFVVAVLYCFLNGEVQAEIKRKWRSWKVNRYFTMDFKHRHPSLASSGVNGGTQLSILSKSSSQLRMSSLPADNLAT
In words: competition with 100 pM [125I]-PACAP27, membrane fraction of pRPR4-B-introduced CHO cells (FIG. 40B). Here is the method:
(§1) The pRPR3-A-introduced and pRPR4-B-introduced CHO cells obtained in (2) described above were each disrupted in sodium carbonate buffer containing 1 mM EDTA, 0.5 mM PMSF, 20 μg/ml leupeptin, 4 μg/ml E-64 and 1 μg/ml pepstatin with a Polytron homogenizer (Kinematica) to prepare membrane fractions. Using the membrane fractions, complex binding experiments were conducted. […] The reaction was conducted at 25° C. for 1 hour, and bound ligands were separated from free ligands by filtration through a filter. […] The amount of bound ligands was measured with a γ-counter.

Assay [3] addresses T2, rat PACAP receptor protein Type I-A (pRPR3-A, derived from pRPACAPR46-5), expressed in CHO or Sf9 cells (rat, UniProt P32215 20-523).
T2 construct: also called pRPR3-A-introduced CHO cells; clone A12
T2 sequence: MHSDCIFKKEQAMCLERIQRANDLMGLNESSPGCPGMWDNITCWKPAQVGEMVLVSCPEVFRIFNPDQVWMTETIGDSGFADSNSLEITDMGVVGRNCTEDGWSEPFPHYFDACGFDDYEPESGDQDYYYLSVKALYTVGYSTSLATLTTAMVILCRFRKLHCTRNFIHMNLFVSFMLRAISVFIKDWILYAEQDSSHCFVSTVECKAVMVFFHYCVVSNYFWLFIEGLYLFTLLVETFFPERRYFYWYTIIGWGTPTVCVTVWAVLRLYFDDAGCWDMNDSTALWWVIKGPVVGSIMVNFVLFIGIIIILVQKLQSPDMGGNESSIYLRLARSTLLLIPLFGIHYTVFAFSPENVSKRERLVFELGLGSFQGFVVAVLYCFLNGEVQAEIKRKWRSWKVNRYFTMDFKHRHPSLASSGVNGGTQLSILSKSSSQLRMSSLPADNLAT
In words: competition with 100 pM [125I]-PACAP27, membrane fraction of pRPR3-A-introduced CHO cells (FIG. 40A). Here is the method: as §1

In assay [4] the target is bovine PACAP receptor protein from bovine cerebrum (bovine) (UniProt Q29627). In words: saturation binding experiment; fraction: Solubilized product.
Assay [5] shares this target. In words: saturation binding experiment; fraction: Avidin-agarose.
Assay [6] concerns the target T1, rat PACAP receptor protein Type I-B …. In words: 100 pM [125I]-PACAP27 on whole CHO cells, gamma counting (FIG. 39).
Protocol: (§2) The cells were incubated until they covered the bottom surface of the tissue culture plates completely. […] The cells were washed twice with a buffer for the binding experiment [Hank's solution (pH 7.4) containing 5 mM HEPES, 5% CRAPS and 0.1% BSA]. […] After incubation at 37° C. for 1 hour, the cells washed three times with the buffer for the binding experiment were dissolved with 1 ml of 0.5 N NaOH and 0.1% SDS for each well, and the radioactivity contained therein was measured with a γ-counter.
The target in assay [7] is T2, rat PACAP receptor protein Type I-A …. Described as above.
Protocol: as §2
Assay [8] concerns the target bovine PACAP receptor protein from bovine cerebrum (bovine) (UniProt Q29627). In words: saturation binding experiment; fraction: Membrane fraction.
Assay [9] shares this target. As to the kind of experiment: saturation binding experiment; fraction: Micro hydroxyapatite.
Assay [10] shares this target. In words: saturation binding experiment; fraction: Ion exchange.
Assay [11] has the same target. In words: saturation binding experiment; fraction: Gel filtration (final purified sample). (In general: In gel filtration, larger molecules generally elute earlier.)
The target is the same in assay [12]. As to the kind of experiment: saturation binding experiment; fraction: Hydroxyapatite.
The target in assay [13] is T3, bovine PACAP receptor protein Type I-A encoded by pBPR-T, expressed in CHO cells (UniProt Q29627 38-513).
T3 chain: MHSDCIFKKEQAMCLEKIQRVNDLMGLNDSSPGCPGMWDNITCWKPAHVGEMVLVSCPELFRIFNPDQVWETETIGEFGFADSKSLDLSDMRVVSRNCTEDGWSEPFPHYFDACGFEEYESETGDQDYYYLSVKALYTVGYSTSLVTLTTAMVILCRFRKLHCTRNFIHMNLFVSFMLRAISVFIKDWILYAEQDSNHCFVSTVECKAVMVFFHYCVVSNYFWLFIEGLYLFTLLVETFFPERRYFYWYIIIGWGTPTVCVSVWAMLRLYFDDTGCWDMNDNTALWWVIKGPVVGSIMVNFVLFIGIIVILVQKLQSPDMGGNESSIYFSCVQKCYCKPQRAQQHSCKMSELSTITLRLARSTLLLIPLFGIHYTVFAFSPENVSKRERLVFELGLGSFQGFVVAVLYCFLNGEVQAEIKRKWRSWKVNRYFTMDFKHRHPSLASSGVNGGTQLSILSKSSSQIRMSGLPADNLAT
As to the kind of experiment: radioligand.

Values joined by “and” are separate entries in the source; they are usually repeats but may differ in a detail not shown here. Identical values can stand only once. Where no end group is shown, it is not given here.

Turning to [^125I]-PACAP27, the dissociation constant Kd (usually the constant that tells how readily two partners part at equilibrium) in [1] is 29 pM and 30 pM.

B1: PACAP27 (peptide)
peptide: HSDGIFTDSYSRYRKQMAVKKYLAAVL-NH2
notes: also called unlabeled PACAP27; cold PACAP27
Consider B1, for which the binding result in assay [2] and in assay [3] was “binds” each time.

B2: [^125I]-PACAP27 (peptide)
peptide: HSDGIFTDSYSRYRKQMAVKKYLAAVL-NH2
modifications: also: 125I label on one Tyr, which one not given here
notes: also called radioactive iodine-labelled PACAP27
Take B2: the Specific activity turned out to be 1.9 pmol/mg in [4]; 1.3 pmol/mg in assay [8]; 9.9 pmol/mg in assay [10]; 16000 pmol/mg in assay [11]; 25 pmol/mg in assay [12]. For the same molecule, the Total activity (maximum binding of [125I]PACAP27) stood at 4560 pmol in assay [4]; 2040 pmol in assay [5]; 8120 pmol in assay [8]; 1720 pmol in assay [9]; 4700 pmol in assay [10]; 671 pmol in assay [11]. The molecule also yielded a Total activity (maximum binding of [125I]PACAP27) in assay [12] of 3350 pmol. Moreover, the binding result in [6] and in assay [7] was “binds” each time. In [13], the dissociation constant Kd was found to be 103 pM.
